Measured values from paper PMC4259882.

B1: fadL probe 1 (dsDNA)
DNA 1: GCAACATTCCAGCTGGTCCGACCTATACTCTCGCC
DNA 2: GGCGAGAGTATAGGTCGGACCAGCTGGAATGTTGC
B2: fadD probe 2 (dsDNA)
DNA 1: GTAATTATCAAGCTGGTATGATGAGTTAATATTATG
DNA 2: CATAATATTAACTCATCATACCAGCTTGATAATTAC
B3: fabA probe (dsDNA)
DNA 1: TTTATTCCGAACTGATCGGACTTGTTCAGCGTACACGTGTTAGCTATCCTGCGTGC
DNA 2: GCACGCAGGATAGCTAACACGTGTACGCTGAACAAGTCCGATCAGTTCGGAATAAA
B4: fadL probe 2 (dsDNA)
DNA 1: CTCTCGCCACTGGTCTGATTTCTAAGATGTACCTC
DNA 2: GAGGTACATCTTAGAAATCAGACCAGTGGCGAGAG
B5: fadD probe 1 (dsDNA)
DNA 1: GAAACAGCGGCTGGTCCGCTGTTTCTGCATTCT
DNA 2: AGAATGCAGAAACAGCGGACCAGCCGCTGTTTC
B6: fadBA probe (dsDNA)
DNA 1: ACTTCGACTCATCTGGTACGACCAGATCACCTTGCGG
DNA 2: CCGCAAGGTGATCTGGTCGTACCAGATGAGTCGAAGT
B7: fabB probe (dsDNA)
DNA 1: TCTATTAAATGGCTGATCGGACTTGTTCGGCGTACAAGTGTACGCTATTGTGCATTC
DNA 2: GAATGCACAATAGCGTACACTTGTACGCCGAACAAGTCCGATCAGCCATTTAATAGA

Experiments:
FadR K113 (W60G) [1] = target: T1, FadR K113 (W60G) (Escherichia coli strain K113, UniProt P0A8V6 1-239, W60G); experiment: EMSA; up to 2 pmol protein; Roche DIG gel shift binding buffer (composition not stated), 15 min, room temperature; 0.1 pmol (Fig. 3) or 0.2 pmol (Fig. 6) probe; 7-7.5% native PAGE
FadR WT [2] = target: T2, FadR WT (Escherichia coli K12, UniProt P0A8V6 1-239); experiment: EMSA; Roche DIG gel shift binding buffer (composition not stated), 15 min, room temperature; 0.1 pmol (Fig. 3) or 0.2 pmol (Fig. 6) probe; 7-7.5% native PAGE
FadR WT [3] = target: T2, FadR WT; experiment: EMSA; dose-dependent, 0.05-10 pmol protein; Roche DIG gel shift binding buffer (composition not stated), 15 min, room temperature; 0.1 pmol (Fig. 3) or 0.2 pmol (Fig. 6) probe; 7-7.5% native PAGE
FadR F74G = FadR F74G (Escherichia coli K12, UniProt P0A8V6 1-239, F74G); experiment: EMSA; up to 10 pmol protein; Roche DIG gel shift binding buffer (composition not stated), 15 min, room temperature; 0.1 pmol (Fig. 3) or 0.2 pmol (Fig. 6) probe; 7-7.5% native PAGE
FadR K113 (W60G) [4] = target: T1, FadR K113 (W60G); experiment: as above
FadR W75G = FadR W75G (Escherichia coli K12, UniProt P0A8V6 1-239, W75G); experiment: as above
FadR F74G/W75G = FadR F74G/W75G (Escherichia coli K12, UniProt P0A8V6 1-239, F74G;W75G); experiment: as above

Binder	binding result (FadR K113 (W60G) [1])	binding result (FadR WT [2])	also measured
B1	no binding	binds	
B2			binding result (FadR WT [3]): binds; binding result (FadR F74G): no binding; binding result (FadR K113 (W60G) [4]): no binding; binding result (FadR W75G): no binding; binding result (FadR F74G/W75G): no binding
B3	no binding	binds	
B4	no binding	binds	
B5	no binding	binds	
B6	no binding	binds	
B7	no binding	binds	
